doi:10.1101/2025.11.21.689678 (bioRxiv, 2025)

Target: MBP-MAGEA6 (human (cDNA from A549 cells), UniProt P43360 1-314)
Assay: pull-down

Sequence of MBP-MAGEA6 (P43360 whole entry): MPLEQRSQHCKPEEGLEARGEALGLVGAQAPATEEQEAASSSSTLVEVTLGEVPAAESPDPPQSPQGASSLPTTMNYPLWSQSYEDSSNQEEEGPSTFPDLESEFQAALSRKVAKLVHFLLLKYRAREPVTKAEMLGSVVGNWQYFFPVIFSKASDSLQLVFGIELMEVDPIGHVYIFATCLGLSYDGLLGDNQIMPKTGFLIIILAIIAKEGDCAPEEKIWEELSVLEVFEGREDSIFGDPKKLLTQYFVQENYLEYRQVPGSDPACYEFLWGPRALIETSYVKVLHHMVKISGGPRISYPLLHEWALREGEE

binding result: binds
B1: His-Flag-ALKBH2 (natural protein, human, UniProt Q6NS38 1-261, looked up)
chain: MDRFLVKGAQGGLLRKQEEQEPTGEEPAVLGGDKESTRKRPRREAPGNGGHSAGPSWRHIRAEGLDCSYTVLFGKAEADEIFQELEKEVEYFTGALARVQVFGKWHSVPRKQATYGDAGLTYTFSGLTLSPKPWIPVLERIRDHVSGVTGQTFNFVLINRYKDGCDHIGEHRDDERELAPGSPIASVSFGACRDFVFRHKDSRGKSPSRRVAVVRLPLAHGSLLMMNHPTNTHWYHSLPVRKKVLAPRVNLTFRKILLTKK
